Patent publication US7691590B2, “Reducing myelin-mediated inhibition of axon regeneration” (Children's Medical Center Corporation, priority 2001, dated 2010)
Where two headings read alike, the source gives them in different places.

T1: Nogo receptor (NgR) (Homo sapiens, UniProt Q9BZR6)
T1 construct: both cDNAs contained the full-length coding region of the Nogo-66 receptor (NgR); expressed in transfected cells; host or cells: CHO cells stably expressing NgR (COS-7 for the library clones)
T1 sequence (Q9BZR6 27-473): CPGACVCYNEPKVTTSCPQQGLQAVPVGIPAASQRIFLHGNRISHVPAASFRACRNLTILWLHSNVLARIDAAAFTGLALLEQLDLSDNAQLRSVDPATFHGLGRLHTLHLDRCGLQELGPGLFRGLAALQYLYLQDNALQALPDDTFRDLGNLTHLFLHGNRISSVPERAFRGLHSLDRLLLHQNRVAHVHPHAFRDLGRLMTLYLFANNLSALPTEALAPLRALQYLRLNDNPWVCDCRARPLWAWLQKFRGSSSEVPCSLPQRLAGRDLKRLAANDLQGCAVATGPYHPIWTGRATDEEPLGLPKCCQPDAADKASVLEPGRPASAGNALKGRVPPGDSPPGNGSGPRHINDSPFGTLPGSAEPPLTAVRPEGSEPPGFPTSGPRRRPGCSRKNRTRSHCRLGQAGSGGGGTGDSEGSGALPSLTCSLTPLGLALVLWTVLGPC

B1: AP-OM: alkaline phosphatase fusion protein containing mouse OMgp, polyhistidine and myc tagged (protein)
chain: ICPLQCTCTERHRHVDCSGRNLTTLPPGLQENIIHLNLSYNHFTDLHNQLTPYTNLRTLDISNNRLESLPAQLPRSLWNMSAANNNIKLLDKSDTAYQWNLKYLDVSKNMLEKVVLIKNTLRSLEVLNLSSNKLWTVPTNMPSKLHIVDLSNNSLTQILPGTLINLTNLTHLYLHNNKFTFIPEQSFDQLLQLQEITLHNNRWSCDHKQNITYLLKWVMETKAHVIGTPCSKQVSSLKEQSMYPTPPGFTSSLFTMSEMQTVDTINSLSMVTQPKVTKTPKQYRGKETTFGVTLSKDTTFSSTDRAVVAYPEDTPTEMTNSHEAAAATLTIHLQDGMSSNASLTSATKSPPSPVTLSIARGMPNNFSEMPRQSTTLNLRREETTANGNTRPPS
modifications: left off: large carriers; small tags and cut ends
notes: alkaline phosphatase fusion protein containing mouse OMgp, polyhistidine and myc tagged
B2: Nogo-66: 66 amino acid extracellular domain of Nogo-A (protein)
chain: RIYKGVIQAIQKSDEGHPFRAYLESEVAISEELVQKYSNSALGHVNCTIKELRRLFLVDDLVDSLK
modifications: left off: large carriers
notes: 66 amino acid extracellular domain of Nogo-A

Key:
Nogo receptor (NgR) [1] = biological target: T1, Nogo receptor (NgR); experiment: Cell surface binding of AP fusion proteins to NgR-expressing cells (saturation analysis); conditions: CHO cell line stably expressing NgR; read-out: binding affinity of expressed NgR for AP-OM
Protocol: To investigate the mechanisms by which OMgp inhibits neurite outgrowth, we used an expression cloning strategy^9,13,16 to identify cell surface OMgp-binding proteins. […] From pools of an adult human brain cDNA expression library, we isolated two cDNAs that encoded OMgp-binding proteins. […] We then established a CHO cell line stably expressing the NgR and determined the binding affinity of expressed NgR for AP-OM as 5 nM, similar to what had been determined for Nogo-66 (7 nM, ref. 9). […] We next performed co-precipitation experiments by incubating GST or a GST fusion protein containing the entire extracellular domain of NgR (GST-NgR) with OM-his alone or in the presence of AP or AP-66 protein. […] We next determined which domain(s) of OMgp was responsible for binding to NgR. Like NgR, OMgp is also a GPI-linked protein containing a leucine-rich repeat (LRR) domain. […]
Cell surface binding and expression cloning were performed as described previously^4,13,17. […] After extensive washing and heat inactivation, the bound proteins were detected by AP staining using nitro blue tetrazolium (NBT) and 5-bromo-4-chloro-3-indoyl phosphate (BCIP) as substrate. For saturation analysis, we disrupted cells and detected bound AP fusion proteins using r-nitrophenyl phosphate as substrate. […]

[2] = tested on: growth cones of E13 chick DRG neurons; experiment: Growth cone collapse assay with E13 chick DRG explants; format: cell-based; conditions: E13 chick DRG
Text: OMgp is a Physiological Nogo Receptor Ligand and Inhibitor of Neurite Outgrowth. To examine whether any GPI-linked proteins in CNS myelin may act as inhibitors of neurite outgrowth, we treated purified bovine white matter myelin with phosphatidylinositol-specific phospholipase C (PI-PLC) and examined the released proteins for their ability to alter growth cone morphology in a growth cone collapse assay using embryonic day 13 chick dorsal root ganglia (E13 DRG)^6,9,10. […] Since the size of this band was similar to that of a previously identified CNS myelin protein OMgp^11,12, we used antibodies specific for OMgp to detect enrichment of cleaved OMgp in the PI-PLC supernatants by Western blot. […] Next, we examined whether purified recombinant OMgp protein was able to act as an inhibitor of neurite outgrowth in two well-established in vitro assays, the growth cone collapse^6,9,13 and the neurite outgrowth assays^3-7,9.
Growth Cone Collapse and Neurite Outgrowth Assays. Chick E13 DRG and E7 retina were isolated and cultured as described previously^9,10. DRG explants cultured overnight were used for growth cone collapse assays. To assess the effects of PI-PLC treatment, cultures were pre-incubated with 2 U/ml PI-PLC for 30 min prior to treatment with individual test proteins for an additional 30 min. To express NgR in E7 retinal ganglion neurons, we infected the explants with recombinant HSV for 24 hr. After incubation with each test protein for 30 min, retinal explants were fixed in 4% paraformaldehyde and 15% sucrose. Infection of HSV-LacZ was detected by a standard b-galatosidase staining protocol^20. FLAG-NgR expression was detected by incubating paraformaldehyde-fixed cultures with M2 anti-FLAG antibody (Sigma). Bound antibody was detected by incubation with AP-conjugated […] IgG second antibody and reaction with NBT and BCIP (Vector labs). Growth cone collapse was quantified only in those positively stained for b-galatosidase or immunoreactive for the FLAG epitope.

[3] = tested on: chick E7 retinal ganglion neurons (RGN) expressing human NgR; experiment: Growth cone collapse in E7 retinal ganglion neurons expressing FLAG-NgR (HSV infection); format: cell-based; conditions: E7 RGN infected with HSV FLAG-NgR
Text: To assess whether NgR is capable of mediating OMgp-induced inhibitory activity on neurite outgrowth, we next took a gain-of-function approach to examine whether expression of NgR was able to confer OMgp-responsiveness to otherwise insensitive neurons. It has been shown previously that chick E7 retinal ganglion neurons (RGN) are insensitive to Nogo-66, but that introduction of exogenous NgR in these neurons rendered their growth cones to be responsive to Nogo-66^9. Using the same strategy, we made a recombinant herpes simplex virus (HSV) that drives expression of a FLAG-tagged full-length human NgR (FLAG-NgR) in infected neurons. Upon infection, 80% of the E7 RGNs expressed the FLAG-NgR protein as assessed by immunocytochemistry with an anti-FLAG antibody. […] Furthermore, the growth cones of NgR-expressing axons also become collapsible by OMgp.
Growth Cone Collapse and Neurite Outgrowth Assays. […] Infection of HSV-LacZ was detected by a standard b-galatosidase staining protocol^20. FLAG-NgR expression was detected by incubating paraformaldehyde-fixed cultures with M2 anti-FLAG antibody (Sigma). Bound antibody was detected by incubation with AP-conjugated […] IgG second antibody and reaction with NBT and BCIP (Vector labs). Growth cone collapse was quantified only in those positively stained for b-galatosidase or immunoreactive for the FLAG epitope.

Nogo receptor (NgR) [4] = biological target: T1, Nogo receptor (NgR); conditions: read-out: binding affinity of NgR for Nogo-66; cited from earlier work

| Molecule | Kd (Nogo receptor (NgR) [1]) | growth cone collapsing activity [2] | growth cone collapse response in NgR-expressing neurons [3] | growth cone collapsing activity after PI-PLC treatment of the neurons ([2]; PI-PLC pre-incubation) | Kd (Nogo receptor (NgR) [4]) |
| --- | --- | --- | --- | --- | --- |
| B1 | 5 nM | induce collapse | – | – | – |
| B2 | – | – | conferred a growth cone collapse response | insensitive | 7 nM |
